The values below are quoted from earlier work in publication PMC11204982.

The target in the data set is CD20 (Homo sapiens) (UniProt P11836).
Sequence of UniProt P11836 (P11836 whole entry): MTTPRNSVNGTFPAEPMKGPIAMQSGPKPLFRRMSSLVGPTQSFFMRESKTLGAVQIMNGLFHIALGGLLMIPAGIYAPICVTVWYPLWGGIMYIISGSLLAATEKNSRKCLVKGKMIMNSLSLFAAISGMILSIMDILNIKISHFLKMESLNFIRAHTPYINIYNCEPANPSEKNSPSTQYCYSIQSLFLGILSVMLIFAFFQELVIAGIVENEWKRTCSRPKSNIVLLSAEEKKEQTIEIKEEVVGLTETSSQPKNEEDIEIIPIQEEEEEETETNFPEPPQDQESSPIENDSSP

Regarding rituximab, the Kd was 5.2 nM.
